Laboratory results as given in article PMC9412841 (ACS Applied Materials & Interfaces, 2022).

What was measured:
[1] = Accelerated heating assay of insulin (90 °C, 30 min), HPLC and PAGE; format: physicochemical; details: DPBS pH 7.4, insulin 1 mg/mL final, pTrMA 28.1 kDa 2 mol equiv, 0.22 μm filtered, RP-HPLC, n = 3
Method: The formulations were heated to 90 °C for 30 min. […] The heated samples were also investigated by native polyacrylate gel electrophoresis (PAGE) for changes to MW or isoelectric point for evidence of chemical changes or aggregate formation (Figure 8b).
For all *p < 0.05, **p < 0.01, and ***p < 0.001.
(§1) The samples were stored at 4 °C or heated to 90 °C for 30 min in ambient light. Aliquots of each insulin sample were used directly for SDS and native PAGE as well as ThT assay. […] ThT was prepared at 50 μM (0.0159 mg/mL) in 20 mM DPBS pH 7.4. Into a black 96-well plate, 50 μL of each sample was pipetted. To these was added 250 μL of ThT solution, and the plate was incubated at room temperature (21 °C) for 20 min. Fluorescence intensity was measured on a Tecan M1000 plate reader (λex = 450 nm, λem = 482 nm).

[2] = SEC-MALS oligomerization state of insulin; format: physicochemical; details: insulin 30 mg/mL, 0.1 M PBS pH 7.4; pTrMA 26.0 kDa 30 mg/mL; fresh or heated 90 °C 30 min
[3] = Long-term insulin stability at 4 °C, RP-HPLC; format: physicochemical
Method: To study relevant storage, the formulations were kept at a standard refrigeration temperature at 4 °C for 46 weeks.
The samples were stored at 4 °C for […], followed by regular sampling.

[4] = Differential scanning calorimetry, melting temperature of insulin; format: physicochemical; details: DSC; insulin 10 mg/mL in 10 mM HCl; pTrMA 5 mol equiv or trehalose 50 mg/mL
Description: In addition, differential scanning calorimetry was undertaken to study the melting temperature of the insulin. […] Thus, it is unlikely that the change in melting temperature is a significant factor in protein stabilization.

[5] = Thioflavin T (ThT) fibrillation assay; format: physicochemical; details: 90 °C, 30 min; ThT 50 μM, 20 min at 21 °C; λex 450 nm, λem 482 nm; n = 3
Method: as §1, with “In addition, differential scanning calorimetry was undertaken to study the melting temperature of the insulin. […] Thus, it is unlikely that the change in melting temperature is a significant factor in protein stabilization. […] The” for “The”

[6] = C57HL/6 mice, 72 h; cited from earlier work
Description: In the final time points of the extended μPET/μCT experiment, the signal in the liver still appeared to be going down, while the study co ...

[7] = μPET/μCT stability study of ^64Cu-labeled pTrMA-co-DOTA (fresh, plasma-incubated, free ^64CuCl2); format: in vivo, C57BL/6 mice; details: female mice, n = 4, i.v., fresh 200 μCi, plasma-incubated (37 °C, 24 h) 100 μCi, ^64CuCl2 100 μCi, mean ± SEM
Method: To determine if organ signal attenuation was occurring because ^64Cu was released from pTrMA-co-DOTA in vivo due to insufficiently strong DOTA chelation, the stability of the radiolabeled polymer as well as the biodistribution and excretion of free ^64Cu was investigated by further μPET/μCT imaging. Mice (female, n = 4) were i.v. injected with the fresh ^64Cu-labeled pTrMA-co-DOTA (200 μCi), ^64Cu-pTrMA-co-DOTA after incubating in plasma at 37 °C for 24 h (100 μCi), and free ^64CuCl2 (100 μCi). […] If ^64Cu was readily leached from the DOTA group when incubated in plasma, the shifting biodistribution in the organs with time would have been the same as with the mice exposed to free ^64CuCl2. […]
Figure 6 Time course biodistribution and excretion of fresh ^64Cu-labeled pTrMA-co-DOTA (blue), plasma-incubated ^64Cu-labeled pTrMA-co-DOTA (red), and free ^64CuCl2 (green) from the organs (a) brain, (b) heart, (c) liver, (d) left kidney, (e) right kidney, (f) bladder, (g) muscle, (h) left lung, (i) right lung, (j) spleen, and (k) intestine of female (n = 4) mice. […] Data were quantified from μPET images.
^64Cu-radiolabeled pTrMA-co-DOTA was incubated in plasma collected from a female C57BL/6 mouse at 37 °C for 24 h. […] Co-registered μPET/μCT images were analyzed, and MIPs were generated using AMIDE software.

[8] = test system: IgG and IgM antibodies specific to OVA or pTrMA; assay: Antibody immunogenicity study, IgG and IgM immune ELISA of serum; format: in vivo; details: female CD-1 mice, n = 5–6; i.p. at weeks 0 and 2; OVA 2 mg/kg, pTrMA 10 wt %; serum weeks 1-3; ELISA vs naïve serum
Method: To study the adaptive immune response in the form of antibody production, mice were challenged at weeks 0 and 2 with the model immunogenic protein ovalbumin (OVA, 2 mg/kg) as a positive control, pTrMA (10 wt % or 100 mg/mL), or both OVA + pTrMA (2 mg/kg OVA, 10 wt % pTrMA) via intraperitoneal (i.p.) injection. Serum was collected each week, and the immunoglobulin IgG and IgM antibodies specific to OVA or pTrMA were measured by ELISA. For ELISA, OVA or bovine serum albumin (BSA) conjugated with pTrMA (Figure S1) was adsorbed for 16–18 h on microplate wells to capture any antibodies in the serum. Serum from challenged mice and naïve mice as a negative control was measured for antibodies against the challenge antigen, OVA, or the BSA–pTrMA conjugate. Serum from the mice treated with OVA and pTrMA was tested against both OVA and the BSA–pTrMA conjugate. Testing against both antigens measured if the polymer increases the immunogenicity of OVA and, conversely, if the presence of an immunogenic protein, OVA, elicited an immunogenic response to the polymer (Figure S2).
Figure 2 Antibody levels in mice specific to OVA or pTrMA (BSA–pTrMA conjugate) antigens over 3 weeks after i.p. injection of OVA (2 mg/kg), OVA + pTrMA (2 mg/kg, 10 wt %), or pTrMA (10 wt %) at weeks 0 and 2 (n = 5–6). […]

What does the source list for “insulin: Recombinant human insulin purchased from Sigma-Aldrich”?
degradation (deamidation at AsnB3) after heating, HPLC [1]: very little intact insulin remaining; oligomerization state by SEC-MALS [2]: no hexameric insulin was present; intact insulin, % of the original level, after 20 weeks ([3]; DPBS pH 7.4, insulin 1 mg/mL final, pTrMA 10.1 kDa 2 mol equiv, 0.22 μm filtered, RP-HPLC, n = 3, mean ± SEM): 67.4 ± 7.0%; appearance of solution (aggregation) during weeks 20-46 ([3]; DPBS pH 7.4, visual): visually cloudy; melting temperature of insulin (alone or with the named additive) [4]: 86.6 °C; ThT fluorescence signal [5]: significantly higher (p < 0.01) fluorescence signal than fresh insulin

For [64Cu+2].[Cl-].[Cl-] [^64CuCl2], which “accumulation in the kidneys” value [6] is on record?
The value was 10 % ID/cc.

What about the “accumulation in the liver” value [6] of the same molecule?
Its value is 13 % ID/cc.

What about the “total signal remaining at the 24 h time point” value [7] of the same molecule?
The value was 56.3 ± 19.7%.

Which “melting temperature of insulin (alone or with the named additive)” value [4] does the source give for OC[C@H]1O[C@H](O[C@H]2O[C@H](CO)[C@@H](O)[C@H](O)[C@H]2O)[C@H](O)[C@@H](O)[C@@H]1O [trehalose] here?
Its value is 88.8 °C.

B1: OVA: model immunogenic protein ovalbumin, positive control (protein, UniProt P01012 2-386, looked up)
Ovalbumin: GSIGAASMEFCFDVFKELKVHHANENIFYCPIAIMSALAMVYLGAKDSTRTQINKVVRFDKLPGFGDSIEAQCGTSVNVHSSLRDILNQITKPNDVYSFSLASRLYAEERYPILPEYLQCVKELYRGGLEPINFQTAADQARELINSWVESQTNGIIRNVLQPSSVDSQTAMVLVNAIVFKGLWEKAFKDEDTQAMPFRVTEQESKPVQMMYQIGLFRVASMASEKMKILELPFASGTMSMLVLLPDEVSGLEQLESIINFEKLTEWTSSNVMEERKIKVYLPRMKMEEKYNLTSVLMAMGITDVFSSSANLSGISSAESLKISQAVHAAHAEINEAGREVVGSAEAGVDAASVSEEFRADHPFLFCIKHIATNAVLFFGRCVSP
What does the source list for B1?
OVA-specific IgG response [8]: increased in both weeks 2 and 3; OVA-specific IgM response [8]: only elevated in the first week
